In article PMC4655608 (The Biochemical journal, 2015):
One block for each binder: values may come before it.

Molecular target: catalytic p110γ subunit of class IB phosphoinositide 3-kinase (PI3Kγ) (human, UniProt P48736 1-1102)
Assay: AUC

catalytic p110γ subunit of class IB phosphoinositide 3-kinase (PI3Kγ), sequence (P48736 whole entry): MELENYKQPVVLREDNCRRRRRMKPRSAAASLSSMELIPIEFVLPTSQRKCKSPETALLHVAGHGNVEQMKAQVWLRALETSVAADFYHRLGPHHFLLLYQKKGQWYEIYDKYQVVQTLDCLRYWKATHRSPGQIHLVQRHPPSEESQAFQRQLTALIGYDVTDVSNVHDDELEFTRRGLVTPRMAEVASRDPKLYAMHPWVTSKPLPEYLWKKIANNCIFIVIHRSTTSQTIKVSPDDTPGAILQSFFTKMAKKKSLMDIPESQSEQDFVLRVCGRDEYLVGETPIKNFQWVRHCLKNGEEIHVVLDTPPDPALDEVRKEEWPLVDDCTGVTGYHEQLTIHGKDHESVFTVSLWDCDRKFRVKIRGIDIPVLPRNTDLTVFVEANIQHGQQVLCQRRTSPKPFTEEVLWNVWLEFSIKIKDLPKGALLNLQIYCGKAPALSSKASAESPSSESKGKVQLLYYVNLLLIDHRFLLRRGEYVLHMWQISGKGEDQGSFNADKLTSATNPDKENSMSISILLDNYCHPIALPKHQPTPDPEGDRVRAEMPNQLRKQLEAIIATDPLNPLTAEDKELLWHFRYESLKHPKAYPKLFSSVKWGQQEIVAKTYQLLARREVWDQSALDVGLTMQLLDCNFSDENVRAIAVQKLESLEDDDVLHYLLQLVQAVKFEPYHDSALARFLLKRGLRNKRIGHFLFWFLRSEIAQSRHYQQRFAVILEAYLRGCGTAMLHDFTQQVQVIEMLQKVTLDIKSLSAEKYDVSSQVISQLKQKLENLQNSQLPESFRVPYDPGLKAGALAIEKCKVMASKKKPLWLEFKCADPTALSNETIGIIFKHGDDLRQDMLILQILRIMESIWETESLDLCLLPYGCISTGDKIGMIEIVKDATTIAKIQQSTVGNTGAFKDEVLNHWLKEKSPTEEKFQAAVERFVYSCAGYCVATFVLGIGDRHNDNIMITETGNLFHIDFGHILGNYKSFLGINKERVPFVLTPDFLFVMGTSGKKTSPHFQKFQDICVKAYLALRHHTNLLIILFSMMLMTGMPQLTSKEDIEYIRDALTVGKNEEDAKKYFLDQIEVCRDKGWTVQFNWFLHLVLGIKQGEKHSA

Kd: ≤ 200 nM
B1: p87 non-catalytic subunit of PI3Kγ (natural protein, UniProt Q5UE93 1-754, looked up)
chain: MESSDVELDLQRSVQAVLRELSTQAPALQSNQGMWRWSLHKKVERDPGKSPVLVRILLRELEKAESQDLRHVIIPLLHTVMYVLTKATGITEELYQRIYAFCTRLLTLPTPYCTVALDCAIRLKTEMAVPGTLYQRMVIAEQNLTNELYPYQERVFLFVDPELVSASVCSALLLEIEAAQAQQTPETCMRHVVSHALQAALGEACHAGALHRKLQASPRRTLEHYFHAVVAALEQMASEASPSREGHVERLEEIYCSLLGPAAGRCGGDLVQERPPSIPLPSPYITFHLWTGEEQLWKELVLFLRPRSQLRLSADLEVLDLQGLRPDRELARVSVLSTDSGIERDLPTGADELPAPGSPEMERAGLQRKGGIKKRAWPLDFLMPGSWDGPPGLHRRTGRPSGDGEMLPGVSRLHTARVLVLGDDRMLGRLAQAYHRLRKRETQKFCLTPRLSLQLYYIPVLAPEKPAASRQPELGELATFLGRVDPWYQSNVNTLCPAIHKLAEMPPSLDTSRTVDPFILDVITYYIRMGTQPIYFQIYTVKIFFSDLSQDPTEDIFLIELKVKIQDSKFPKDGFSPRRRGVAEGPGAELSLCYQKALLSHRPREVTVSLRATGLILKAIPASDTEVSGSSHCPLPAAPVTDHTCLNVNVTEVVKSSNLAGKSFSTVTNTFRTNNIQIQSRDQRLLTLSLDKDDQRTFRDVVRFEVAPCPEPCSGAQKSKAPWLNLHGQQEVEAIKAKPKPLLMPINTFSGIVQ

Kd: ≤ 100 nM
B2: p101 non-catalytic subunit of PI3Kγ (natural protein, UniProt Q8WYR1 1-880, looked up)
chain: MQPGATTCTEDRIQHALERCLHGLSLSRRSTSWSAGLCLNCWSLQELVSRDPGHFLILLEQILQKTREVQEKGTYDLLTPLALLFYSTVLCTPHFPPDSDLLLKAASTYHRFLTWPVPYCSICQELLTFIDAELKAPGISYQRLVRAEQGLPIRSHRSSTVTVLLLNPVEVQAEFLAVANKLSTPGHSPHSAYTTLLLHAFQATFGAHCDVPGLHCRLQAKTLAELEDIFTETAEAQELASGIGDAAEARRWLRTKLQAVGEKAGFPGVLDTAKPGKLHTIPIPVARCYTYSWSQDSFDILQEILLKEQELLQPGILGDDEEEEEEEEEVEEDLETDGHCAERDSLLSTSSLASHDSTLSLASSQASGPALSRHLLTSFVSGLSDGMDSGYVEDSEESSSEWPWRRGSQERRGHRRPGQKFIRIYKLFKSTSQLVLRRDSRSLEGSSDTALPLRRAGSLCSPLDEPVSPPSRAQRSRSLPQPKLGTQLPSWLLAPASRPQRRRPFLSGDEDPKASTLRVVVFGSDRISGKVARAYSNLRRLENNRPLLTRFFKLQFFYVPVKRSHGTSPGACPPPRSQTPSPPTDSPRHASPGELGTTPWEESTNDISHYLGMLDPWYERNVLGLMHLPPEVLCQQSLKAEAQALEGSPTQLPILADMLLYYCRFAARPVLLQVYQTELTFITGEKTTEIFIHSLELGHSAATRAIKASGPGSKRLGIDGDREAVPLTLQIIYSKGAISGRSRWSNLEKVCTSVNLNKACRKQEELDSSMEALTLNLTEVVKRQNSKSKKGFNQISTSQIKVDKVQIIGSNSCPFAVCLDQDERKILQSVVRCEVSPCYKPEKSDLSSPPQTPPDLPAQAAPDLCSLLCLPIMTFSGALP
